Experimental data taken from patent US20120207760A1 (THERACLONE SCIENCES, published 2012).

B1: TCN-538 (3206_O17) (antibody, V domains shown)
VH: QITLKESGPTLVKPTQTLTLTCVFSGFSLSITGVRVGWIRQPPGKALEWLALISWDDEKHYSPSLQSRLTITKDTSKNQVVLTMTNLDPVDTATYYCARSTDRGHVLRYFGWMLPGDAFDVWGQGTMVTVSS
VL: DIVMTQSPDFLPVSLGERATINCKSSQRVLYSSNNKNYLAWYQLKPGQPPKLIIYWASTRESGVPDRFSGSGSGTEFTLTISSLQAEDVAVYYCQQYYSRPYTFGQGTKLEIK
B2: TCN-547 (5092_F11) (antibody, V domains shown)
VH: QVQLQESGPGLVKPSQTLSLTCTVSGDSISSVDHYWSWIRQHPVKGLEWIGFMYYSASTYYNPSLKSRVTISTDTSKNQFSLRLSSVTAADTAVYYCARGTCAGDCSLHYYYYGLDVWGQGRTVTVSS
VL: DIQMTQSPSSLSASVGDRVTITCRASQSISSYLNWYQHKPGKAPKVLMYAVSILQSGVPSRFSGSGSGADFTLTISSLQPEDFATYYCQQSYSSPLTFGGGTKVEIK
B3: TCN-553 (5261_C18) (antibody, V domains shown)
VH: QVQVVQSGTEVKKPGSSVKVSCQTSGGRFMSYAITWVRQAPGQGLEWMGGIVPVFGTANYAQKFQGRVTITTDDSTRTAYMELSSLRSEDTAVYYCGFRYGSGYGFDSWGQGTLVTVSS
VL: EIVLTQSPGTLSLSPGERATLSCRASQSVSSSYLAWYQKKPGQAPRLLIYGASTRATGIPDRFTGSGSGTDFTLSISRLEPEDFAVYYCQHFGTSVFTFGGGTKVEIK
B4: TCN-542 (5079_A16) (antibody, V domains shown)
VH: QVQLQESGPGLVKPSQTLSLTCTVSGGSISSGNYYWNWVRQHPGKGLEWIGYIYYRGSTFYNPSLKSRVTISIDTSKNQFSLRLSSVTAADTAVYYCAKDTRSSLDNYQYGMDVWGQGTTVTVSS
VL: QTVVTQEPSLTVSPGGTVTLTCASSTGAVTSSYFPNWFQQKPGQAPRPLIYSTTIRHSWTPARFSGSLLGGKAALTLSGVQPEDEADYYCLLYSGGDPVAFGGGTKLTVL
B5: TCN-545 (5082_I15) (antibody, V domains shown)
VH: QVQLQQWGAGLLKPSETLSLSCAVFGGSFSDYYWTWIRQPPGKGLEWIGEIKHSGRTNYNPSLESRVTISVDTSKNQFSLKLSSVTAADTAIYYCARGTDPDTEGYCRSGSCSAFDFWGQGTLVTVSS
VL: EIVLTQSPGTLSLSPGERATLSCRASHFVNYRSLAWYQQTPGQVPRLLIYGASTRATGIPDRFSGSGSGTDFTLTISRLEPEDFAVYFCQQYGGSPRYTFGQGTRLEIK
B6: TCN-546 (5089_L08) (antibody, V domains shown)
VH: QVQLQQWGAGLLKPSETLSLTCGVYGGSLSDYYWSWIRQPPGKGLEWIGEINHSGGTNYNPSLKRRVTISVDTSKKQFSLKMNSVTAADTAVYYCARGTDPDTEVYCRAGNCAAFDFWGQGTLVTVSS
VL: EIVLTQSPGTLSLSPGERATLSCRASHFVIGRAVAWYQQKPGQAPRLLIYGASSRATGIPDRFSGSGSGTDFTLTISRLETEDFAVFYCQHYGSSPRYAFGQGTKLEIK
B7: TCN-550 (5096_F06) (antibody, V domains shown)
VH: QVQLQESGPGLVKPSETLSLTCTVSGASINSHYWSWIRQPPGKGLEWIGYVYYSGSTTYNPSLKSRVTLSVDTSKNQFSLNLSSVTAADTAFYYCARHPYDVLTGSGDWFDPWGQGTLVTVSS
VL: SYVLTQAPSVSVAPGQTARITCGGNAIGSKKVHWYQHKAGQAPVLVVYDDTDRPSGIPERFSGSNSWSTATLTINRVEAGDEADYYCQVWDFTIDHVVFGGGTKLTVL
B8: TCN-549 (5092_P04) (antibody, V domains shown)
VH: QVQLVQSGAEVKKPGASVKVSCKASGYTFTGYYMHWVRQAPGQGLEWMGWINPNSGDTNYAQKFQGRVTMTRDTSITTAYMELSSLRSDDTAVYYCARDSPYSSSWSFFDYWGQGPLVTVSS
VL: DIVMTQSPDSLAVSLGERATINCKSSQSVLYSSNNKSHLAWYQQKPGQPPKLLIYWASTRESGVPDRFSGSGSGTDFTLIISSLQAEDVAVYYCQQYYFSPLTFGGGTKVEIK
B9: TCN-543 (5081_G23) (antibody, V domains shown)
VH: QVHLVQSGAEVRKPGDSVKVSCKTSGYTFSTYPVAWVRQVPGQGLEWMGWISTYNGNTNFAQNFQGRVTLTTDTTTNTAYMEVRSLKFDDTAVYYCARVEGSYRDFWNNQNRFDPWGQGTLVTVSS
VL: SYVLTQPPSVSVAPGQTARISCGGSNIGGKSVHWYQQKPGQAPVLVVYDDSGRPSGIPERFSGSNSGDTATLTISRVEAGDEADYFCQVWDNFGGVFGTGTKVTVL
B10: TCN-558 (5248_H10b) (antibody, V domains shown)
VH: QVQLVQSGSEVKKPGTSVKVSCTASGSVFTNYGISWVRQAPGQGLEWMGGIIPLFGAAKYAQKFQGRVTITADESTKTVYMELSRLTSKDTAIYFCAKAPRVYEYYFDQWGQGTPVTVSS
VL: EIVMTQFPATLSVSPGERVTLSCRASQSVSNNLAWYQQKPGQPPRLLIYDASTRATGVPAKFSGTGSGTEFTLSISSLQSEDFAVYYCQQYHNWPPSYSFGLGTKLEIK
B11: TCN-539 (5056_A08) (antibody, V domains shown)
VH: QVQLVESGGGVVQPGRSLRLSCAASEITFITYAMHWVRQAPGKGLEWVALISDDGSNKFYADSVKGRFTISRDNSKNTLYLQMNSLRAEDTAAYYCAREGVYFDSGTYRGYFDYWGQETLVTVSS
VL: EIVLTQSPATLSLSPGERATLSCRASQSVSSYLAWYQQKPGQAPRLLIYDASNRATGIPARFSGSGSGTDFTLTISSLEPEDFAVYYCQQRSHWPPITFGQGTRLEIK
B12: TCN-537 (3194_D21) (antibody, V domains shown)
VH: QVQLQQWGSGLLKPSETLSLTCAVYGGSFRDDYWTWIRQPPGKGLEWIGEINHSGRTNYNPSLKSRVTISVDTSLKQFSLKVISVTAADTAVYYCARGTSHVSRYFDWLPPTNWFDPWGQGTQVTVSS
VL: DIVLTQSPGTLSLSPGERATLSCRASQSVSSSYLAWYQQKPGQAPRLVMYGAATRATGIPDRFSGSGSGPDFTLTISRLEPEDFAMYYCQQYGNSPITFGQGTRLEIK
B13: TCN-544 (5082_A19) (antibody, V domains shown)
VH: QVQLQESGPGLVKPSETLSLTCTVSRGSIGHYFWSWIRQPPGKGLEWIGYISYSGSTKYNPSLRSRVTISVDTSKNQFSLNLNSVTATDTALYYCAREDYDILTGAGPGMEVWGQGTTVTVSS
VL: QSMLTQPPSASGTPGQRVTISCSGSSSNIGSNTVNWFKHLPGTAPKLLIYRNDLRPSGVPDRFSGSKSGTSASLAISGLQSEDEADYYCATWDDSLNGFYVFGTGTKVTVL
B14: TCN-554 (5277_M05) (antibody, V domains shown)
VH: QVQLVQSGADLKKPGASVKVSCKASGYTFTDYYIHWVRQAPGQGLEWMGWINPESGDTKYAQKFQGRVTMTRDTSITTAYMELGRLRSDDTAVYYCARDVSTTWSWFAPWGQGTLVTVSS
VL: DIVMTQSPDSLAVSLGERATINCRSSQSIFHNSNNENYLAWYQQKPGQPPKLLIYWASTRESGVPDRFSGSGSGTDFTLTISSLQAEDVAVYFCQQYYNAPLTFGGGTKVEIK
B15: TCN-557 (5081_A04) (antibody, V domains shown)
VH: QVQLVQSGAEVKKPGASVKVSCKASGHTFTGYYIHWVRQAPGQGLEWMGWINPDSGATSSAQNFQGRVTMTGDTSSSTAYMELSRLSFDDTAVYYCARVLFTSPFDFWGEGTLVTVSS
VL: QAVVTQEPSLAVSPGGTVTLTCGSSTGAVTRGHYPYWFQQKPGQAPRALIYDSAGNRHSWTPARFSGSLLGGKAALTLSGAQPEDEAEYYCLLSYSGVWVFGGGTKLTVL
B16: TCN-552 (5249_I23) (antibody, V domains shown)
VH: QVQVVQSGAEVKKPGSSVRVSCQASGGTFMNYAIIWVRRAPGQGLEWMGGIIPVFPTPNYAQMFQGRVTISTDESRSTSFLELTNLRYEDTAVYYCARRIYHGGNSGFDFWGQGTLVTVSS
VL: EIVLTQSPATLSLSPGERATLSCRASQSVGNYLAWYQQKPGQAPRLLIYDSSNRAPGIPARFSGSGSGTDFTLTISSLAPEDFAVYYCQQRSKWPPMYSFGHGTKLEIK
B17: TCN-548 (5092_P01) (antibody, V domains shown)
VH: QVQLQESGPGLVKPSETLSLTCTVSSGPMSDYYWSWIRQPPGKGLEWIGHVSVSHGGRTKSNPSVMSRVTISVETSKNQFSLKLTSVTAADTAVYYCARLNYYDRSGYHSPDGPSNNWFDPWGQGTLVTVSS
VL: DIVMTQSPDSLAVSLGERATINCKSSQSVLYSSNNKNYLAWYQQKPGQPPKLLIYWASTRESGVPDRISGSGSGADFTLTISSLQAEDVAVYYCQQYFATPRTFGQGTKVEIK
B18: TCN-556 (5089_K12) (antibody, V domains shown)
VH: QVQLVQSGAEVKKPGASVKVSCKASGYTFIGYDMHWVRQAPGQGLEWMGWINAKRGGTNYAQKFQGRVTMTRDTSISTAYMELNSLRSDDTAVYYCARGVGSRTTIFGVLNPEFDYWGQGTLVTVSS
VL: QSALTQPPSASGSPGQSVTISCTGSSSDVGGYDYVSWYQQHPGKAPKLLIYEVTKRPSGVPDRFSGSKSGNTASLTVSGLQAEDEADYYCSSYAGNYNHVFGPGTKVTVL
B19: TCN-540 (5060_F05) (antibody, V domains shown)
VH: QVQLVQSGGGVVQPGRSLRLSCAASGFTFSSYAMHWVRQAPGKGLEWVAIISYDGNDQYYTDSVKGRFTISRDSSKVYLQMHRLRPEDTAVYYCAKEFETSGYFHGSFDYWGQGILVTVSS
VL: QSALTQPASVSGSPGQSITISCTGTSSDVGGYNYVSWYQQHPGKAPKLLIYEVTNWPSGVSNRFSGSKSGNTASLTISGLQAEDEADYYCSSYAGSSTWVFGGGTRVTVL
B20: TCN-551 (5243_D01) (antibody, V domains shown)
VH: EVQLVQSGSEVKKPGESLKISCKGSGYSFSNYWIGWVRHMPGKGLEWMGIIYPGDSDTRYSPSFQGQVTMSADKSSSTVYLQWSSLKASDTAIYYCARRGGHSFGYGSGGDTHSEFDSWGQGTLVTVSS
VL: QSVLTQSPSVSAAPGQKVTISCSGSDSNIGDYFVCWYQHLPGKPPQLLIYENNKRPSGIPDRFSGSKSGTSATLGITGIQTGDEADYYCATWDGSLSAWVFGGGTKLTVL

Target: hemagglutinin (HA) of influenza A/Japan/305/57 H2N2 (Influenza A virus A/Japan/305/1957 …, UniProt P03451 16-562)
Experiment: ELISA, inactivated whole virions coated; transfection supernatant set 5

| Binder | OD450 [OD450] |
| --- | --- |
| B1 | 3.37 |
| B2 | 0.09 |
| B3 | 3.28 |
| B4 | 0.07 |
| B5 | 0.1 |
| B6 | 0.07 |
| B7 | 0.08 |
| B8 | 0.08 |
| B9 | 3.64 |
| B10 | 3.31 |
| B11 | 0.07 |
| B12 | 3.48 |
| B13 | 0.07 |
| B14 | 0.11 |
| B15 | 3.59 |
| B16 | 2.68 |
| B17 | 0.09 |
| B18 | 3.64 |
| B19 | 3.61 |

Target: T1, hemagglutinin (HA) of influenza A/Solomon Islands/3/06 H1N1 (Influenza A virus A/Solomon …)
Experiment: as above

| Binder | OD450 [OD450] |
| --- | --- |
| B1 | 3.59 |
| B2 | 0.09 |
| B3 | 3.56 |
| B4 | 3.6 |
| B5 | 1.36 |
| B6 | 3.67 |
| B7 | 0.13 |
| B20 | 3.65 |
| B8 | 0.09 |
| B9 | 3.63 |
| B10 | 3.52 |
| B11 | 0.07 |
| B12 | 3.56 |
| B13 | 0.07 |
| B14 | 0.18 |
| B15 | 3.58 |
| B16 | 3.61 |
| B17 | 0.13 |
| B18 | 3.64 |
| B19 | 0.09 |

Target: T1, hemagglutinin (HA) of influenza …
Experiment: cell-based or functional assay

| Binder | % Neutralization [%] |
| --- | --- |
| B1 | 35 |
| B3 | 87 |
| B4 | 98 |
| B5 | 98 |
| B6 | 0 |
| B20 | 100 |
| B9 | 100 |
| B11 | 97 |
| B12 | 89 |
| B13 | 95 |
| B14 | 42 |
| B16 | 57 |
| B19 | 100 |
